The values that follow come from patent US12319742 (SHATTUCK LABS, dated 2025).

The Kd is the concentration at which binding is half-saturated. In general, koff refers to the first-order rate constant of dissociation. The term kon denotes the rate constant with which the complex forms.

Assay [1] has as its target T1, biotinylated recombinant human TNFRSF25-His tagged (Acro #TN5-H52H3) (human, UniProt Q93038 25-199, biotinylated).
T1 construct: treated as the same protein; also called recombinant biotin-conjugated human TNFRSF25 protein; DR3
T1 sequence (looked up): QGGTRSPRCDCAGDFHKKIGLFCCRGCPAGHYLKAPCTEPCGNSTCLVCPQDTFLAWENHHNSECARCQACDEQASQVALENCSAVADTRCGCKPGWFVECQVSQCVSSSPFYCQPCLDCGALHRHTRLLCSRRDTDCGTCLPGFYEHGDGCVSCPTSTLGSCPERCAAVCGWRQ
Kind of assay: MSD plate binding; TNFRSF25 precoated, unpurified scFv supernatant in 2-fold serial dilutions, detection of the C-terminal myc tag. The text has this: (FIG. 2A) TNFRSF25 was precoated on MSD assay plates followed by adding scFv supernatant at 2-fold serial-dilutions followed by detection of the myc tag present on the C-terminus of the scFv's. (FIG. 2B) scFv supernatant were serially diluted and added to an MSD-plate pre-coated with TNFRSF25.

Assay [2] deals with T1, biotinylated recombinant human …. Description: MSD competition (lower panel); antibody on TNFRSF25-coated plate, wash, then TL1A-rabbit Fc at 0.4 ug/ml, sulfo-tag anti-rabbit detection; raw MSD signal. The protocol: Figure 6: FIG. 6. […] Human TNFRSF25 was precoated on MSD assay plates followed by incubating with various concentrations of anti-TNFRSF25 antibodies.
In assay [3] the target is T2, biotinylated recombinant human FcRn-His tagged protein (Acro #FCM-H82W7) (human, UniProt P55899 24-297; P61769 21-119, biotinylated).
T2 construct: also called hFcRn; neonatal Fc receptor
T2 sequence (P55899 24-297 limits assumed, chain 1 of 2): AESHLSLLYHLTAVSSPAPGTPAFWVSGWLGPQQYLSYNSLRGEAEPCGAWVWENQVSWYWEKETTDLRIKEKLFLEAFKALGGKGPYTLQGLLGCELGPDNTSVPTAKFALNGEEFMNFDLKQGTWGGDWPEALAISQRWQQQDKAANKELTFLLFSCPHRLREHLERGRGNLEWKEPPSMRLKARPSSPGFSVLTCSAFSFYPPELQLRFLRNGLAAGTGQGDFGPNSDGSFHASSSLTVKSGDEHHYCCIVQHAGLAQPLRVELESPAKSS
T2 sequence (P61769 21-119 limits assumed, chain 2 of 2): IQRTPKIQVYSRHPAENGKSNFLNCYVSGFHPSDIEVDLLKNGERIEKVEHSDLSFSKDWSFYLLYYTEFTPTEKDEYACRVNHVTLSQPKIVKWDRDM
Kind of assay: BLI/Octet; biotinylated human FcRn-His on streptavidin biosensor; pH 6.0. How it is done: (§1) Figure 5D: FIG. 5D. FcRn binding kinetics by anti-TNFRSF25 antibodies. BLI assay was performed using the Octet Red 96e instrument. Streptavidin biosensors were loaded with biotinylated recombinant human(h) FcRn-His tagged protein (Acro #FCM-H82W7) as the ligand. During the association phase, biosensors were incubated with anti-DR3 candidate antibodies at various concentrations for 600 seconds, followed by a 600-second dissociation phase.
(§2) To detect binding of certain whole antibodies to the neonatal Fc receptor (FcRn) at neutral and acidic pH conditions, streptavidin biosensors were loaded with biotinylated recombinant human FcRn-His tagged protein (Acro #FCM-H82W7) as the ligand. During the association phase, biosensors were incubated with anti-TNFRSF25 antibodies at various concentrations for 600 seconds, followed by a 600 second dissociation phase.
A general note: Biolayer interferometry detects binding as a change in optical thickness at a sensor tip.

The target of assay [4] is T2, biotinylated recombinant human FcRn-His …. Description: BLI/Octet; biotinylated human FcRn-His on streptavidin biosensor. How it is done: as §1, §2
The target is the same in assay [5]. Description: BLI/Octet; biotinylated human FcRn-His on streptavidin biosensor; pH 7.4. The protocol: as §1, §2

B1: NH24-162 (scFv, not shown: small tags and cut ends)
scFv: EVQLVESGGGSVQPGGSLRLSCAASGFTFSSYGMSWVRQAPGKGLEWISYISSSGGHTYYADSVKGQFTISRDNAKNSLYLQMNSLRAEDTAVYYCARGSGSFDYWGQGTLVTVSSGGRGSGGGGSGSGGSDIVMTQSPSSLSASVGDRVTITCQASQDISNYLSWYQQKPGKAPKLLISDASNLETGVPSRFSGSGSGTDFTFTISSLQPEDIATYYCQQYDNLPITFGQGTRLEIKR
notes: one of the four variants of group m25; used as unpurified E. coli supernatant; the sheet prints NH24-162; also called NH24-162 scFv
For B1, the binding result in assay [1] was “binds”.

B2: SL-061_YTE (antibody, human IgG1, kappa)
heavy: QVQLQQSGPGLVKPSQTLSLTCAISGDSVSGYSAAWNWIRQSPSRGLEWLGRTYYRSKWYNDYAVSVKSRITINPDTSKNQFSLQLNSVTPEDTAVYYCARDYYGSESYYNRGYYYYGMDVWGQGTTVTVSSASTKGPSVFPLAPSSKSTSGGTAALGCLVKDYFPEPVTVSWNSGALTSGVHTFPAVLQSSGLYSLSSVVTVPSSSLGTQTYICNVNHKPSNTKVDKKVEPKSCDKTHTCPPCPAPEAAGAPSVFLFPPKPKDTLYITREPEVTCVVVDVSHEDPEVKFNWYVDGVEVHNAKTKPREEQYNSTYRVVSVLTVLHQDWLNGKEYKCKVSNKALPAPIEKTISKAKGQPREPQVYTLPPSREEMTKNQVSLTCLVKGFYPSDIAVEWESNGQPENNYKTTPPVLDSDGSFFLYSKLTVDKSRWQQGNVFSCSVMHEALHNHYTQKSLSLSPGK
light: AIQLTQSPSSLSASVGDRVTITCRASPGISSALAWYQQKPGKAPKLLMYDESSQESGVPSRFSGSGSGTDFTLTISSLQPEDFATYYCQQFNDYPLTFGGGTKVEIKRTVAAPSVFIFPPSDEQLKSGTASVVCLLNNFYPREAKVQWKVDNALQSGNSQESVTEQDSKDSTYSLSSTLTLSKADYEKHKVYACEVTHQGLSSPVTKSFNRGEC
notes: SL-061 with YTE half-life extension changes in the Fc
B2: in assay [2], the “IC50 (read off the curve)” value was around 0.07 nM. Besides, in assay [3], the Kd was 0.966 nM, the koff is 0.000193 s⁻¹ and the kon amounted to 200000 M⁻¹ s⁻¹. In addition, in assay [4], the “fold improvement in binding affinity at pH 6.0 compared to pH 7.4” value was around 10 fold. In assay [5], the Kd was found to be 8.08 nM, the koff is 0.00179 s⁻¹ and the kon worked out at 222000 M⁻¹ s⁻¹.
